Assay results published in patent US12385914B2, “CRY1-clock-BMAL1 complex-disrupting agents and methods of identifying and using same” (The Regents of the University of California, priority 2017, dated 2025).
“Also recorded” adds a separate entry of the source.

Target: T1, CRY1-CLOCK PAS-B domain complex (Mus musculus, UniProt P97784)
T1 construct: His6 (N, cleaved yes); made in house; host or cells: CRY1 PHR: Sf9 insect cells (baculovirus)
T1 sequence (P97784 with tags, fused parts or gaps): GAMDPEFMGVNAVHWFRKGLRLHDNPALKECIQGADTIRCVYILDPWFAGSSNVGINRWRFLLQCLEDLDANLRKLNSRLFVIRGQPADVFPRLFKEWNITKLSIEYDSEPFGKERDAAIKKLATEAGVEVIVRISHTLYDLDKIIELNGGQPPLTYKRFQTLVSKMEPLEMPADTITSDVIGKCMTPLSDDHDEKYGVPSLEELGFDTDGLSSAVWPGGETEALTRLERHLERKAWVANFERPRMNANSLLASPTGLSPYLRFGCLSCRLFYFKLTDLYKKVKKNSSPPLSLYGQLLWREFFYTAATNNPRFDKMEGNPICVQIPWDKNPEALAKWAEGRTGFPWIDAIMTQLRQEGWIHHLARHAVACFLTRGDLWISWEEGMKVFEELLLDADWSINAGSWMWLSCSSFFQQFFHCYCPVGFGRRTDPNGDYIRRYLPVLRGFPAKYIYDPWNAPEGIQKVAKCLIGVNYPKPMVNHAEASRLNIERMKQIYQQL
Assay: Fluorescence polarization (FP)-based displacement assay of labeled CLOCK PAS-B from CRY1 PHR
Type: binding
Settings: 100 μM peptide; 20 nM CLOCK PAS-B probe and 4 μM CRY1 PHR; triplicate wells; FIG. 13
Method: Described in this example is a fluorescence polarization (FP)-based displacement assay developed by the inventors for identifying agents that disrupt the CRY1-CLOCK-BMAL1 ternary complex.
CRY1 PHR and CLOCK PAS-B domain fluorescently labeled at its N-terminus were prepared as described in the preceding examples. Equipment/Reagents included the following: Greiner 384 Well Assay Plate, 120 μl rounded square wells, flat bottom, black polystyrene; Envision 2103 Multilabel Reader (2103-0020); Fluorescence Polarization (FP) assay buffer (50 mM Bis-Tris Propane, 100 mM NaCl, 2 mM TCEP, 0.05% Tween-20, 0.5% DMSO, pH 7.5); and GraphPad Prism (version 6 or higher). All assay components were buffer exchanged into FP buffer.
A stock assay mixture of 8 μM CRY1 and 40 nM labeled CLOCK PAS-B was incubated at 4° C. overnight. Equal volumes (half of final well volume) stock assay mixture was dispensed into wells of the Greiner 384 Well Assay Plate, reserving wells for appropriate controls. […] Fluorescence polarization was measured using an Envision 2013 plate reader.
A labeled CLOCK PAS-B-only control of 20 nM was used to determine the G-factor for FP. The G-factor should be variable “G” such that Fluorescence polarization (FP)=1000*(S−G*P)/(S+G*P). […] G=(S/P)*(1−27/1000)/(1+27/1000), with S being the parallel fluorescence intensity, and P being the perpendicular fluorescence intensity. […]

peptide encoded by CRY1 Exon 11: 23 residue peptide encoded by human CRY1 Exon 11 (residues 530-552), sequence CSQGSG1LHYAHGDSQQTHLLK; positive control inhibitor (CSQGSGILHYAHGDSQQTHLLK; listed as Homo sapiens)
displacement of CLOCK PAS-B from the CRY1 PHR: displaced CLOCK PAS-B from the CRY1 PHR; also recorded: able to displace CLOCK PAS-B from the CRY1 PHR
